Source: paper PMC3140484

Legend:
[1] = tested on: CopR (CgtR9) response regulator, preincubated with acetylphosphate (Corynebacterium glutamicum ATCC 13032); assay: EMSA; conditions: 50 mM Tris-HCl pH 7.5, 50 mM KCl, 10 mM MgCl2, 0.5 mM EDTA, 10% glycerol, room temperature 30 min; 50 mM acetylphosphate preincubation (60 min) for P2; DNA …
[2] = tested on: CopR (CgtR9) response regulator, unphosphorylated (Corynebacterium glutamicum ATCC 13032); assay: EMSA; conditions: unphosphorylated; apparent Kd; 50 mM Tris-HCl pH 7.5, 50 mM KCl, 10 mM MgCl2, 0.5 mM EDTA, 10% glycerol, room temperature 30 min; 50 mM acetylphosphate preincubation (60 min) for P2; DNA …

copR promoter Kd probe, 90 bp
Kd [1]: 400 nM | Kd [2]: 2300 nM
